Assays:
[1] = biological target: MsFcγRIα-EGFP (largemouth bass FcγRIα fused to EGFP, expressed on transfected HEK293 cells) (largemouth bass (Micropterus salmoides)); test: flow cytometry on cells; MsFcγRIα-EGFP-transfected HEK293 cells in serum-free DMEM, 20 μg/mL purified MsIgM added for 24 h at 37 °C; bound MsIgM detected with anti-MsIgM mAb MM06H and Alexa Fluor 647 goat anti-mouse IgG; n = 3
[2] = biological target: MsFcγRIα-EGFP (largemouth bass FcγRIα fused to EGFP, expressed on transfected HEK293 cells) (largemouth bass (Micropterus salmoides)); test: flow cytometry on cells; MsFcγRIα-EGFP-transfected HEK293 cells in serum-free DMEM, 20 μg/mL purified MsIgM added for 12 h at 37 °C; bound MsIgM detected with anti-MsIgM mAb MM06H and Alexa Fluor 647 goat anti-mouse IgG; n = 3
[3] = biological target: MsFcγRIα-EGFP (largemouth bass FcγRIα fused to EGFP, expressed on transfected HEK293 cells) (largemouth bass (Micropterus salmoides)); test: flow cytometry on cells; MsFcγRIα-EGFP-transfected HEK293 cells in serum-free DMEM, 20 μg/mL purified MsIgM added for 6 h at 37 °C; bound MsIgM detected with anti-MsIgM mAb MM06H and Alexa Fluor 647 goat anti-mouse IgG; n = 3

largemouth bass IgM (MsIgM), purified from serum (natural protein)
percent of MsFcγRIα-expressing HEK293 cells with MsIgM after 24 h incubation [1]: 40.3% | percent of MsFcγRIα-expressing HEK293 cells with MsIgM after 12 h incubation [2]: 26.3% | percent of MsFcγRIα-expressing HEK293 cells with MsIgM after 6 h incubation [3]: 19.7%

From publication PMC9699129
